Measurements reported in US20050203009A1, “VPAC1 selective antagonists and their pharmacological methods of use” (Bayer Pharmaceuticals Corporation, priority 2004, published 2005).
Square brackets hold non-standard residues; d marks the D form. Primed or numbered codes have the meaning given here. Side chains are listed from the residue outwards. Ends that are not written are not given here. Peptide text beside a SMILES is read from it. maleimide″ = maleimide group of the 22 kD methoxy-PEG-maleimide reagent, which reacts with the Cys sulfhydryl to form a stable thioether linkage; maleimide = methoxy-PEG-maleimide (thioether to cysteine thiol)

T1: VPAC2 (Homo sapiens, UniProt P41587)
T1 construct: expressed in transfected cells; membranes
T1 sequence (P41587 24-438): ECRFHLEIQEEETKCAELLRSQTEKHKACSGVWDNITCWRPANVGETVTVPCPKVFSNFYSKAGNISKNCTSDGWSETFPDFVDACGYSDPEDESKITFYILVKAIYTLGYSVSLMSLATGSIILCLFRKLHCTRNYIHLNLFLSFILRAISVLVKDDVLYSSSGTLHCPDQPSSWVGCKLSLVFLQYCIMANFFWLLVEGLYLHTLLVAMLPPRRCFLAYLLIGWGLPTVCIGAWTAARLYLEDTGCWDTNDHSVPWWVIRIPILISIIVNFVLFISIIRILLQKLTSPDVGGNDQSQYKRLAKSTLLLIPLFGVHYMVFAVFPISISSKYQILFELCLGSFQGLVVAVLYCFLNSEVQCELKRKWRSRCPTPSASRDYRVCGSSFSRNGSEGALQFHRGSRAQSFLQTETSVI

T2: human VPAC1 (human, UniProt P32241 31-457)
T2 construct: whole, on cells; The cAMP assay used whole cells; also called VPAC1 receptor
T2 sequence (looked up): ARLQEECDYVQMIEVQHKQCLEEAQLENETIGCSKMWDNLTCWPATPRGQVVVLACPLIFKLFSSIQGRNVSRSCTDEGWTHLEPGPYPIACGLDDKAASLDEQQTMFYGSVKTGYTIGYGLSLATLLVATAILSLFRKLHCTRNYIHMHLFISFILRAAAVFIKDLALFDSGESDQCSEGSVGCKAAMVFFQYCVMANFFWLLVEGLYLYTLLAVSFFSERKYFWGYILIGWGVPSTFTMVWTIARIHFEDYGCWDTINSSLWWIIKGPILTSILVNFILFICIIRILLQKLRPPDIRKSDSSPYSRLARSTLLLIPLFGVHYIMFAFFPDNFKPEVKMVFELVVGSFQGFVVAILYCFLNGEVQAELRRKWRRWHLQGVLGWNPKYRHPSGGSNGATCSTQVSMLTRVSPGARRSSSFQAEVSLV


Legend:
VPAC2 = molecular target: T1, VPAC2; assay: Receptor competition assay, 125I-PACAP27 binding to CHO membranes (VPAC2); conditions: membranes of VPAC2-transfected CHO cells, 0.1 nM 125I-PACAP27
From the text: In order to test for selective binding of the VPAC1 selective antagonist to the VPAC1, both the VPAC1 and VPAC2 receptors were expressed in CHO cells using the following procedure. The human VPAC1 and the VPAC2 were cloned via RT PCR from human heart mRNA and human testis mRNA, respectively, using TaqPlus Precision PCR System (Stratagene). The PCR products were subcloned into pCDNA3.1 (Invitrogen) for in vitro translation and mammalian expression. The cell line chosen for expression was the CHOcreluc line already expressing a cAMP response element-luciferase reporter along with Gα16. These cells were grown under hygromycin selection at 0.4 mg/ml. On the day of transfection, CHOcreluc cells at 70% confluency were washed with serum free media and transfected using Lipofectamine Plus Reagent (Gibco BRL). Stable pools were selected in the presence of 0.4 mg/ml hygromycin and 1.5 mg/ml G418. Once viably-frozen stocks had been made from these pools they were cloned by limiting dilution.
The capacity of the VPAC1 selective antagonist to selectively bind the VPAC1 as opposed to the VPAC2 receptor was measured using membranes prepared from CHO cells transfected with both receptors as described in Example 3. […] The filters were washed with cold 25 mM NaPO4 containing 1% BSA and counted in a gamma counter. […]

[1] = test system: NCI-H727 human non-small cell lung carcinoma cell line; assay: NCI-H727 cancer cell proliferation assay (Alamar Blue); assay type: cell-based
Description: NCI-H727 is an adherent human non-small cell lung carcinoma cell line. The cells are grown in RPMI-1640 plus 2 mM L-Glutamine and 10% FBS and cells subcultured in the following manner: Medium was removed and cells were rinsed once in PBS solution. To harvest the cells 10 mls PBS containing 2 ml of trypsin-EDTA solution was added to a 75 ml flask. The flask was incubated at 37° C. until the cells detached. Fresh culture medium was added, aspirated and dispensed into new culture flasks. A split ratio of 1:3 to 1:4 was carried out 2 times per week. The 96-well assay was performed as follows: Day 1) Cells were seeded at 7000 cells/well in 0.2 ml complete medium/well and incubated overnight at 37° C. Day 2) Complete medium was aspirated from wells and 200 ul/well PBS was added and aspirated. Cells were then treated with peptides using the assay medium RPMI-1640 plus 2 mM L-Glutamine and 0.2% FBS at a final volume of 200 ul/well and incubated for 2 days. Day 4) Alamar Blue (10% of total volume) was added to wells and absorbance (530/590 nm) read at 0, 4, 6, 8, 10 and 24 hours.

human VPAC1 [2] = molecular target: T2, human VPAC1; assay: ratio of the VPAC2 and VPAC1 IC50 values, 125I-PACAP27 competition on CHO membranes
Description: (§1) Cells were washed with phosphate buffered saline (PBS), scraped in homogenization buffer (10 mM Tris pH 7.4, 2 mM EDTA, 5 mM MgCl2, 1 mM PMSF), followed by centrifugation at 4000 g for 10 minutes at 4° C. The cell pellet was resuspended in homogenization buffer and homogenized using a Polytron. Membranes were collected by centrifugation at 30,000 g for 30 minutes at 4° C., resuspended in homogenization buffer, and stored at −80° C. until use. […] After incubating at 37° C. for 20 minutes, bound ligand was collected on GF/C filters pretreated with 0.1% polyethylenimine. The filters were washed with cold 25 mM NaPO4 containing 1% BSA and counted in a gamma counter. All reagents were purchased from Sigma unless otherwise indicated.

human VPAC1 [3] = molecular target: T2, human VPAC1; assay: competition with 125I-PACAP27 on membranes of CHO cells expressing human VPAC1
Description: as §1

human VPAC1 [4] = molecular target: T2, human VPAC1; assay: cell-based or functional assay

Row | Molecule | IC50 (VPAC2) [nM] | IC50 relative to reference compound R2P2 [1] | VPAC2/1 Selectivity (human VPAC1 [2]) [fold] | IC50 (human VPAC1 [3]) [nM] | CHO VPAC1 cAMP inhibition (IC50 against 1 nM VIP) (human VPAC1 [4]) [nM]
1 | Ac-H[dF]DAVFTNSYRKVLKRLSARKLLQDILC([maleimide-methoxy‑PEG 22 kD])-NH2 (also called PEGylated R2P3) [R2P3-PEG22kD] | – | – | > 480 | 21 | 181
2 | Ac-H[dF]DAVFTNSYRKVLKRLSVRKLLQDILC([maleimide-methoxy‑PEG 22 kD])-NH2 (also called PEGylated R2P11) [R2P11-PEG22kD] | – | – | > 200 | 49 | 101

Results, then the molecule that gave them:

Row | IC50 (VPAC2) [nM] | IC50 relative to reference compound R2P2 [1] | VPAC2/1 Selectivity (human VPAC1 [2]) [fold] | IC50 (human VPAC1 [3]) [nM] | CHO VPAC1 cAMP inhibition (IC50 against 1 nM VIP) (human VPAC1 [4]) [nM] | Molecule
3 | > 10000 | – | – | – | – | R2P3-PEG22kD: R2P3 (SEQ ID NO 4) PEGylated at the C-terminal cysteine with 22 kD methoxy-PEG-maleimide (Ac-H[dF]DAVFTNSYRKVLKRLSARKLLQDILC([maleimide″-methoxy‑PEG 22 kD]); not fully specified (C-terminus); printed as HfDAVFTNSYRKVLKRLSARKLLQDILC*; also: C-terminal * undefined) [Peptide R2P3-PEG22kD]
4 | – | three times lower | – | – | – | CC[C@H](C)[C@H](NC(=O)[C@H](CO)NC(=O)[C@H](CCC(N)=O)NC(=O)[C@H](CC(C)C)NC(=O)[C@H](CC(C)C)NC(=O)[C@H](CCCCN)NC(=O)[C@H](CCCNC(=N)N)NC(=O)[C@H](C)NC(=O)[C@H](CO)NC(=O)[C@H](CC(C)C)NC(=O)[C@H](CCCNC(=N)N)NC(=O)[C@H](CCCCN)NC(=O)[C@H](CC(C)C)NC(=O)[C@@H](NC(=O)[C@H](CCCCN)NC(=O)[C@H](CCCNC(=N)N)NC(=O)[C@H](Cc1ccc(O)cc1)NC(=O)[C@H](CO)NC(=O)[C@H](CC(N)=O)NC(=O)[C@@H](NC(=O)[C@H](Cc1ccccc1)NC(=O)[C@@H](NC(=O)[C@H](C)NC(=O)[C@H](CC(=O)O)NC(=O)[C@@H](Cc1ccccc1)NC(=O)[C@H](Cc1c[nH]cn1)NC(C)=O)C(C)C)[C@@H](C)O)C(C)C)C(=O)N[C@@H](CC(C)C)C(N)=O [Peptide R2P16] (HELM PEPTIDE1{[ac].H.[dF].D.A.V.F.T.N.S.Y.R.K.V.L.K.R.L.S.A.R.K.L.L.Q.S.I.L.[am]}$$$$V2.0)
5 | > 10000 | – | – | – | – | R2P11-PEG22kD: R2P11 (SEQ ID NO 5) PEGylated at the C-terminal cysteine with 22 kD methoxy-PEG-maleimide (Ac-H[dF]DAVFTNSYRKVLKRLSVRKLLQDILC([maleimide-methoxy‑PEG 22 kD]); not fully specified (C-terminus); printed as HfDAVFTNSYRKVLKRLSVRKLLQDILC*; also: C-terminal * undefined)
6 | – | – | > 700 | 17 | 50 | HFDAVFTNSYRKVLKRLSARKLLQSIL (HELM PEPTIDE1{[ac].H.[dF].D.A.V.F.T.N.S.Y.R.K.V.L.K.R.L.S.A.R.K.L.L.Q.S.I.L.[am]}$$$$V2.0; SMILES CC[C@H](C)[C@H](NC(=O)[C@H](CO)NC(=O)[C@H](CCC(N)=O)NC(=O)[C@H](CC(C)C)NC(=O)[C@H](CC(C)C)NC(=O)[C@H](CCCCN)NC(=O)[C@H](CCCNC(=N)N)NC(=O)[C@H](C)NC(=O)[C@H](CO)NC(=O)[C@H](CC(C)C)NC(=O)[C@H](CCCNC(=N)N)NC(=O)[C@H](CCCCN)NC(=O)[C@H](CC(C)C)NC(=O)[C@@H](NC(=O)[C@H](CCCCN)NC(=O)[C@H](CCCNC(=N)N)NC(=O)[C@H](Cc1ccc(O)cc1)NC(=O)[C@H](CO)NC(=O)[C@H](CC(N)=O)NC(=O)[C@@H](NC(=O)[C@H](Cc1ccccc1)NC(=O)[C@@H](NC(=O)[C@H](C)NC(=O)[C@H](CC(=O)O)NC(=O)[C@@H](Cc1ccccc1)NC(=O)[C@H](Cc1c[nH]cn1)NC(C)=O)C(C)C)[C@@H](C)O)C(C)C)C(=O)N[C@@H](CC(C)C)C(N)=O, Synthetic VIP/GHRH hybrid peptide, not PEGylated; also called Peptide R2P16) [R2P16]
